Substrate in the series: COc1ccc(-c2oc3c(CC=C(C)C)c(O[C@@H]4O[C@H](CO)[C@@H](O)[C@H](O)[C@H]4O)cc(O)c3c(=O)c2O[C@@H]2O[C@@H](C)[C@H](O)[C@@H](O)[C@H]2O)cc1
Put plainly: HPLC of icariside I formation, Michaelis-Menten nonlinear fit. Particulars: pH 4.6, icariin 0.1–4 mg/ml. The class given is biochemical, Thermotoga petrophila. The text has this:
HPLC of icariside I formation, Michaelis-Menten nonlinear fit on […]

Setting [1] is: optimal conditions of the mutant: 70°C.
The mark [2] stands for this setting: optimal conditions of the mutant: 80°C.

Numbering of substitutions follows the chain as printed. Numbers in names are those of the source.

B1: TpeRha (Thermotoga petrophila RKU-1; D506A/K579A) (protein)
chain: MIQACDLRCEYLTSPVLGLDVIPRFSWRLKGNGKKQTRYKIIVSDNFDDIERGIGNVWESEKDSSKNLNIEYEGPKLKAYKGYYWRVKLWDEKENGPWSETAYFEMGPLEDWRGKWITMPSPLSFKDPAHRHELFYAMYFRKEFLLNKEVEKARVYVSGLGVYELHLNGKRVGNNVLDPAPTDYNKVALYSTYDVTQYLTTGKNTIGVILGNGRHIRDYGYSKPKLYLQLLVFYKDGSREFICSDETWKVSHGPLKENGIYFGEVYDARDEISGWDSPGFDDRNWSEVEIVEGPSLKAQLIPVIRVCEVIKPKRLWLSSRGTFIVDFGKNISGWVKLRVNNGKRGEKIIIRYAEVLDPSMDRLDTRNLRLARATDEYILKGQGVEIYEPRFTYHGFRYVEVEDYPGTLTSDNIEAMFVHTDVEKVGDFACSSELLNKIHSCVVNSQLANLMGIPTDCPQRDERMGWLGDAQLTVEEAMYNFDMAAFYTKYLMDIKLSQKEDGSISAVAPPYWKRYPSDPAWGTAYATILWYLYFFYEDRRVLEEHYDSLKRYVEFLRKNSPNHLTKLGQHGDWCPPGDAFPKRTPLILTSTWYYYHDTLILSEIAKILGKKEDEHEYRKLAGEIKEAFNRHFLRKVEDHTGRIVCFYRGIKLSPKDRIPTTQTCNVLPLWNKMVPEECREDVFKVLERLIEVDNDTHFDTGIVGTRYILEVLSENGRKDLALKLLLKEDYPSFGYMIKNGATTLWERWEKLEGTGMNSHNHVMLGSVDTWFYKYLSGIKPVAPGWKKIRIEPYFADQIDFVSAKIKTPNGSLEVSWKKQNKEYEIQIIIPVNTVGIFAVPESFKVSAINSKQVSYPSEFELEPGAYNIVLERVREC
notes: codon-optimized synthetic gene in pET-28a, E. coli BL21(DE3), Ni-NTA purified (His tag of vector); model domains span 1-861
Broadly, the Km is the concentration of substrate that gives half-maximal velocity. In general, Vmax refers to the rate approached at saturating substrate. One may read the kcat as the maximal rate divided by the concentration of active sites. For orientation: kcat/Km means the second-order rate constant that governs catalysis at low substrate concentration. B1: under setting [1], the Km was determined as 1.39 ± 0.45 µM, the Vmax is 1.37 µM/min, the kcat is 5.68e-05 s⁻¹ and the kcat/Km was 40.9 M⁻¹ s⁻¹.

B2: TpeRha (Thermotoga petrophila RKU-1; H570A/K579A) (protein)
chain: B1 chain with A506D, H570A
notes: as for B1
Turning to B2, under setting [2], the Km turned out to be 0.93 ± 0.08 µM, the Vmax was found to be 5.56 µM/min, the kcat was determined as 0.000118 s⁻¹ and the kcat/Km was 127 M⁻¹ s⁻¹.

The record behind these values is PMC9253678, “Computer-Aided Design of α-L-Rhamnosidase to Increase the Synthesis Efficiency of Icariside I” (Frontiers in Bioengineering and Biotechnology, 2022).
